From paper PMC9519043

Assays:
[1] = target: SARS-CoV-2 B.1.351 (S protein) (SARS-CoV-2 variant B.1.351) (UniProt P0DTC2); experiment: SPR; conditions: SPR (BIAcore T200, […], pH not stated
[2] = target: SARS-CoV-2 B.1.1.7 (S protein) (SARS-CoV-2 variant B.1.1.7) (UniProt P0DTC2); experiment: SPR; conditions: SPR (BIAcore T200, […], pH not stated
[3] = target: SARS-CoV-2 B.1.1.7 (S protein) (SARS-CoV-2 variant B.1.1.7) (UniProt P0DTC2); experiment: microfluidic affinity capture, RT-qPCR; conditions: 5' amino C12 linker and TEG spacer 9; 3' inverted dT; SPR (BIAcore T200, […], pH not stated; […]

Sequence: CAGCACCGACCTTGTGCTTTGGGAGTGCTGGTCCAAGGGCGTTAATGGACA [51-nt SARS-CoV-2 aptamer (Song et al.), SPR form]
- Kd [1]: 1 µM
- Kd [2]: 1 µM

Sequence: CAGCACCGACCTTGTGCTTTGGGAGTGCTGGTCCAAGGGCGTTAATGGACA [51-nt SARS-CoV-2 aptamer, chip form]
- binding signal [3]: 35 % recovery
